# According to the supplement of paper PMC5998384:
# Legend:
# [1] = test system: HeLa Kyoto; assay: melting temperature (median over replicates), in situ; higher = more thermally stable
# [2] = test system: HeLa Kyoto; assay: thermal stability score vs G1/S (z-score of summed log2 fold changes over temperatures); higher = more thermally stable than in G1/S
# [3] = test system: HeLa Kyoto; assay: solubility in G1/S (NP-40 vs SDS abundance) (log2 ratio); higher = more soluble; details: cell cycle stage: G1/S
# [4] = test system: HeLa Kyoto; assay: solubility change mitosis vs G1/S (difference of NP-40 vs SDS log2 ratios) (log2 ratio difference); higher = more soluble in mitosis
# [5] = cell cycle stage: early G1 (4.5 h after nocodazole release)
# 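For melting temperature (median over replicates), in situ in this document: HeLa Kyoto cells synchronized by double thymidine or nocodazole block, proteins quantified by TMT10plex mass spectrometry, three independent biological replicates.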
# 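For solubility change mitosis vs G1/S (difference of NP-40 vs SDS log2 ratios) in this document: synchronized HeLa Kyoto cells (double thymidine block for G1/S, nocodazole release for mitosis), protein amounts in NP-40 versus SDS lysates quantified by mass spectrometry, three biological replicates.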
# 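For solubility in G1/S (NP-40 vs SDS abundance) in this document: HeLa Kyoto cells arrested at G1/S by double thymidine block, proteins quantified by TMT10plex mass spectrometry in mild NP-40 versus SDS extracts, three biological replicates.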
# 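For thermal stability score vs G1/S (z-score of summed log2 fold changes over temperatures) in this document: synchronized HeLa Kyoto cells, proteins quantified by TMT10plex mass spectrometry, three biological replicates, mitosis taken 0.5 h after nocodazole release, G1/S directly after double thymidine block.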
Sequence,melting temperature ([1]; cell cycle stage: G1/S) [°C],melting temperature ([1]; cell cycle stage: mitosis) [°C],"thermal stability score [2, 5]",thermal stability score ([2]; cell cycle stage: mitosis),solubility in G1/S (log2) [3],solubility change mitosis (log2) [4]
MAAAGQLCLLYLSAGLLSRLGAAFNLDTREDNVIRKYGDPGSLFGFSLAMHWQLQPEDKRLLLVGAPRAEALPLQRANRTGGLYSCDITARGPCTRIEFDNDADPTSESKEDQWMGVTVQSQGPGGKVVTCAHRYEKRQHVNTKQESRDIFGRCYVLSQNLRIEDDMDGGDWSFCDGRLRGHEKFGSCQQGVAATFTKDFHYIVFGAPGTYNWKGIVRVEQKNNTFFDMNIFEDGPYEVGGETEHDESLVPVPANSYLGLLFLTSVSYTDPDQFVYKTRPPREQPDTFPDVMMNSYLGFSLDSGKGIVSKDEITFVSGAPRANHSGAVVLLKRDMKSAHLLPEHIFDGEGLASSFGYDVAVVDLNKDGWQDIVIGAPQYFDRDGEVGGAVYVYMNQQGRWNNVKPIRLNGTKDSMFGIAVKNIGDINQDGYPDIAVGAPYDDLGKVFIYHGSANGINTKPTQVLKGISPYFGYSIAGNMDLDRNSYPDVAVGSLSDSVTIFRSRPVINIQKTITVTPNRIDLRQKTACGAPSGICLQVKSCFEYTANPAGYNPSISIVGTLEAEKERRKSGLSSRVQFRNQGSEPKYTQELTLKRQKQKVCMEETLWLQDNIRDKLRPIPITASVEIQEPSSRRRVNSLPEVLPILNSDEPKTAHIDVHFLKEGCGDDNVCNSNLKLEYKFCTREGNQDKFSYLPIQKGVPELVLKDQKDIALEITVTNSPSNPRNPTKDGDDAHEAKLIATFPDTLTYSAYRELRAFPEKQLSCVANQNGSQADCELGNPFKRNSNVTFYLVLSTTEVTFDTPDLDINLKLETTSNQDNLAPITAKAKVVIELLLSVSGVAKPSQVYFGGTVVGEQAMKSEDEVGSLIEYEFRVINLGKPLTNLGTATLNIQWPKEISNGKWLLYLVKVESKGLEKVTCEPQKEINSLNLTESHNSRKKREITEKQIDDNRKFSLFAERKYQTLNCSVNVNCVNIRCPLRGLDSKASLILRSRLWNSTFLEEYSKLNYLDILMRAFIDVTAAAENIRLPNAGTQVRVTVFPSKTVAQYSGVPWWIILVAILAGILMLALLVFILWKCGFFKRSRYDDSVPRYHAVRIRKEEREIKDEKYIDNLEKKQWITKWNENESYS [ITGA6],55.4,55.6,-2.3,-1.75,0.154,-0.116
MAAAMVPGRSESWERGEPGRPALYFCGSIRGGREDRTLYERIVSRLRRFGTVLTEHVAAAELGARGEEAAGGDRLIHEQDLEWLQQADVVVAEVTQPSLGVGYELGRAVAFNKRILCLFRPQSGRVLSAMIRGAADGSRFQVWDYEEGEVEALLDRYFEADPPGQVAASPDPTT [DNPH1],55.3,55.3,-1.99,-2.01,0.392,0.00918
MAAAQEADGARSAVVAAGGGSSGQVTSNGSIGRDPPAETQPQNPPAQPAPNAWQVIKGVLFRIFIIWAISSWFRRGPAPQDQAGPGGAPRVASRNLFPKDTLMNLHVYISEHEHFTDFNATSALFWEQHDLVYGDWTSGENSDGCYEHFAELDIPQSVQQNGSIYIHVYFTKSGFHPDPRQKALYRRLATVHMSRMINKYKRRRFQKTKNLLTGETEADPEMIKRAEDYGPVEVISHWHPNITINIVDDHTPWVKGSVPPPLDQYVKFDAVSGDYYPIIYFNDYWNLQKDYYPINESLASLPLRVSFCPLSLWRWQLYAAQSTKSPWNFLGDELYEQSDEEQDSVKVALLETNPYLLALTIIVSIVHSVFEFLAFKNDIQFWNSRQSLEGLSVRSVFFGVFQSFVVLLYILDNETNFVVQVSVFIGVLIDLWKITKVMDVRLDREHRVAGIFPRLSFKDKSTYIESSTKVYDDMAFRYLSWILFPLLGCYAVYSLLYLEHKGWYSWVLSMLYGFLLTFGFITMTPQLFINYKLKSVAHLPWRMLTYKALNTFIDDLFAFVIKMPVMYRIGCLRDDVVFFIYLYQRWIYRVDPTRVNEFGMSGEDPTAAAPVAEVPTAAGALTPTPAPTTTTATREEASTSLPTKPTQGASSASEPQEAPPKPAEDKKKD [CLPTM1],53.4,53.8,3.21,0.298,-0.0403,-0.142
MAAARPSLGRVLPGSSVLFLCDMQEKFRHNIAYFPQIVSVAARMLKVARLLEVPVMLTEQYPQGLGPTVPELGTEGLRPLAKTCFSMVPALQQELDSRPQLRSVLLCGIEAQACILNTTLDLLDRGLQVHVVVDACSSRSQVDRLVALARMRQSGAFLSTSEGLILQLVGDAVHPQFKEIQKLIKEPAPDSGLLGLFQGQNSLLH [ISOC2],55.1,54.9,1.82,-1.19,0.188,-0.173
MAAASGYTDLREKLKSMTSRDNYKAGSREAAAAAAAAVAAAAAAAAAAEPYPVSGAKRKYQEDSDPERSDYEEQQLQKEEEARKVKSGIRQMRLFSQDECAKIEARIDEVVSRAEKGLYNEHTVDRAPLRNKYFFGEGYTYGAQLQKRGPGQERLYPPGDVDEIPEWVHQLVIQKLVEHRVIPEGFVNSAVINDYQPGGCIVSHVDPIHIFERPIVSVSFFSDSALCFGCKFQFKPIRVSEPVLSLPVRRGSVTVLSGYAADEITHCIRPQDIKERRAVIILRKTRLDAPRLETKSLSSSVLPPSYASDRLSGNNRDPALKPKRSHRKADPDAAHRPRILEMDKEENRRSVLLPTHRRRGSFSSENYWRKSYESSEDCSEAAGSPARKVKMRRH [ALKBH5],51,51.4,3.65,-0.482,-0.0973,0.0485
MAAASVTPPGSLELLQPGFSKTLLGTKLEAKYLCSACRNVLRRPFQAQCGHRYCSFCLASILSSGPQNCAACVHEGIYEEGISILESSSAFPDNAARREVESLPAVCPSDGCTWKGTLKEYESCHEGRCPLMLTECPACKGLVRLGEKERHLEHECPERSLSCRHCRAPCCGADVKAHHEVCPKFPLTCDGCGKKKIPREKFQDHVKTCGKCRVPCRFHAIGCLETVEGEKQQEHEVQWLREHLAMLLSSVLEAKPLLGDQSHAGSELLQRCESLEKKTATFENIVCVLNREVERVAMTAEACSRQHRLDQDKIEALSSKVQQLERSIGLKDLAMADLEQKVLEMEASTYDGVFIWKISDFARKRQEAVAGRIPAIFSPAFYTSRYGYKMCLRIYLNGDGTGRGTHLSLFFVVMKGPNDALLRWPFNQKVTLMLLDQNNREHVIDAFRPDVTSSSFQRPVNDMNIASGCPLFCPVSKMEAKNSYVRDDAIFIKAIVDLTGL [TRAF2],52.5,52.2,-0.77,-1.17,0.0627,-0.084
MAAATADPGAGNPQPGDSSGGGAGGGLPSPGEQELSRRLQRLYPAVNQQETPLPRSWSPKDKYNYIGLSQGNLRVHYKGHGKNHKDAASVRATHPIPAACGIYYFEVKIVSKGRDGYMGIGLSAQGVNMNRLPGWDKHSYGYHGDDGHSFCSSGTGQPYGPTFTTGDVIGCCVNLINGTCFYTKNGHSLGIAFTDLPANLYPTVGLQTPGEIVDANFGQQPFLFDIEDYMREWRAKVQGTVHCFPISARLGEWQAVLQNMVSSYLVHHGYCATATAFARMTETPIQEEQASIKNRQKIQKLVLEGRVGEAIETTQRFYPGLLEHNPNLLFMLKCRQFVEMVNGTDSEVRSLSSRSPKSQDSYPGSPSLSPRHGPSSSHMHNTGADSPSCSNGVASTKSKQNHSKYPAPSSSSSSSSSSSSSSPSSVNYSESNSTDSTKSQHHSSTSNQETSDSEMEMEAEHYPNGVLGSMSTRIVNGAYKHEDLQTDESSMDDRHPRRQLCGGNQAATERIILFGRELQALSEQLGREYGKNLAHTEMLQDAFSLLAYSDPWSCPVGQQLDPIQREPVCAALNSAILESQNLPKQPPLMLALGQASECLRLMARAGLGSCSFARVDDYLH [RANBP10],51.4,51.1,0.428,0.506,0.151,-0.193
MAAAVAAAGAGEPQSPDELLPKGDAEKPEEELEEDDDEELDETLSERLWGLTEMFPERVRSAAGATFDLSLFVAQKMYRFSRAALWIGTTSFMILVLPVVFETEKLQMEQQQQLQQRQILLGPNTGLSGGMPGALPSLPGKI [TOMM22],53.4,52.8,-3.84,-4.82,-0.782,0.211
MAAAVAAAGRLGWLFAALCLGNAAGEAAPGPRVLGFCLEEDGAAGAGWVRGGAARDTPDATFLLRLFGPGFANSSWSWVAPEGAGCREEAASPAGEWRALLRLRLRAEAVRPHSALLAVRVEPGGGAAEEAAPPWALGLGAAGLLALAALARGLQLSALALAPAEVQVLRESGSEAERAAARRLEPARRWAGCALGALLLLASLAQAALAVLLYRAAGQRAVPAVLGSAGLVFLVGEVVPAAVSGRWTLALAPRALGLSRLAVLLTLPVALPVGQLLELAARPGRLRERVLELARGGGDPYSDLSKGVLRCRTVEDVLTPLEDCFMLDASTVLDFGVLASIMQSGHTRIPVYEEERSNIVDMLYLKDLAFVDPEDCTPLSTITRFYNHPLHFVFNDTKLDAVLEEFKRGKSHLAIVQKVNNEGEGDPFYEVLGLVTLEDVIEEIIRSEILDESEDYRDTVVKRKPASLMAPLKRKEEFSLFKVSDDEYKVTISPQLLLATQRFLSREVDVFSPLRISEKVLLHLLKHPSVNQEVRFDESNRLATHHYLYQRSQPVDYFILILQGRVEVEIGKEGLKFENGAFTYYGVSALTVPSSVHQSPVSSLQPIRHDLQPDPGDGTHSSAYCPDYTVRALSDLQLIKVTRLQYLNALLATRAQNLPQSPENTDLQVIPGSQTRLLGEKTTTAAGSSHSRPGVPVEGSPGRNPGV [CNNM3],52.3,51.3,-0.222,-0.298,0.0405,-0.00872
MAAAVAAAPGALGSLHAGGARLVAACSAWLCPGLRLPGSLAGRRAGPAIWAQGWVPAAGGPAPKRGYSSEMKTEDELRVRHLEEENRGIVVLGINRAYGKNSLSKNLIKMLSKAVDALKSDKKVRTIIIRSEVPGIFCAGADLKERAKMSSSEVGPFVSKIRAVINDIANLPVPTIAAIDGLALGGGLELALACDIRVAASSAKMGLVETKLAIIPGGGGTQRLPRAIGMSLAKELIFSARVLDGKEAKAVGLISHVLEQNQEGDAAYRKALDLAREFLPQGPVAMRVAKLAINQGMEVDLVTGLAIEEACYAQTIPTKDRLEGLLAFKEKRPPRYKGE [AUH],51.6,51.6,0.266,1.09,0.261,-0.0164
MAACTARRALAVGSRWWSRSLTGARWPRPLCAAAGAGAFSPASTTTTRRHLSSRNRPEGKVLETVGVFEVPKQNGKYETGQLFLHSIFGYRGVVLFPWQARLYDRDVASAAPEKAENPAGHGSKEVKGKTHTYYQVLIDARDCPHISQRSQTEAVTFLANHDDSRALYAIPGLDYVSHEDILPYTSTDQVPIQHELFERFLLYDQTKAPPFVARETLRAWQEKNHPWLELSDVHRETTENIRVTVIPFYMGMREAQNSHVYWWRYCIRLENLDSDVVQLRERHWRIFSLSGTLETVRGRGVVGREPVLSKEQPAFQYSSHVSLQASSGHMWGTFRFERPDGSHFDVRIPPFSLESNKDEKTPPSGLHW [POLDIP2],50.9,51.4,0.146,-0.814,0.07,-0.0327
MAAEDELQLPRLPELFETGRQLLDEVEVATEPAGSRIVQEKVFKGLDLLEKAAEMLSQLDLFSRNEDLEEIASTDLKYLLVPAFQGALTMKQVNPSKRLDHLQRAREHFINYLTQCHCYHVAEFELPKTMNNSAENHTANSSMAYPSLVAMASQRQAKIQRYKQKKELEHRLSAMKSAVESGQADDERVREYYLLHLQRWIDISLEEIESIDQEIKILRERDSSREASTSNSSRQERPPVKPFILTRNMAQAKVFGAGYPSLPTMTVSDWYEQHRKYGALPDQGIAKAAPEEFRKAAQQQEEQEEKEEEDDEQTLHRAREWDDWKDTHPRGYGNRQNMG [IGBP1],50.7,51.4,-0.476,-0.0586,0.454,0.103
